T1: MIWI (PIWIL1), mouse, 3×Flag–SNAP-tagged recombinant, loaded with a synthetic piRNA (MIWI piRISC) (mouse, UniProt Q9JMB7 1-862, methylarginines (positions in Extended Data Fig. 1h))
T1 construct: Mouse MIWI (PIWIL1); cDNA from the Mammalian Gene Collection; not shown: 3×Flag, N-terminal, kept; SNAP, N-terminal, kept
T1 sequence (looked up): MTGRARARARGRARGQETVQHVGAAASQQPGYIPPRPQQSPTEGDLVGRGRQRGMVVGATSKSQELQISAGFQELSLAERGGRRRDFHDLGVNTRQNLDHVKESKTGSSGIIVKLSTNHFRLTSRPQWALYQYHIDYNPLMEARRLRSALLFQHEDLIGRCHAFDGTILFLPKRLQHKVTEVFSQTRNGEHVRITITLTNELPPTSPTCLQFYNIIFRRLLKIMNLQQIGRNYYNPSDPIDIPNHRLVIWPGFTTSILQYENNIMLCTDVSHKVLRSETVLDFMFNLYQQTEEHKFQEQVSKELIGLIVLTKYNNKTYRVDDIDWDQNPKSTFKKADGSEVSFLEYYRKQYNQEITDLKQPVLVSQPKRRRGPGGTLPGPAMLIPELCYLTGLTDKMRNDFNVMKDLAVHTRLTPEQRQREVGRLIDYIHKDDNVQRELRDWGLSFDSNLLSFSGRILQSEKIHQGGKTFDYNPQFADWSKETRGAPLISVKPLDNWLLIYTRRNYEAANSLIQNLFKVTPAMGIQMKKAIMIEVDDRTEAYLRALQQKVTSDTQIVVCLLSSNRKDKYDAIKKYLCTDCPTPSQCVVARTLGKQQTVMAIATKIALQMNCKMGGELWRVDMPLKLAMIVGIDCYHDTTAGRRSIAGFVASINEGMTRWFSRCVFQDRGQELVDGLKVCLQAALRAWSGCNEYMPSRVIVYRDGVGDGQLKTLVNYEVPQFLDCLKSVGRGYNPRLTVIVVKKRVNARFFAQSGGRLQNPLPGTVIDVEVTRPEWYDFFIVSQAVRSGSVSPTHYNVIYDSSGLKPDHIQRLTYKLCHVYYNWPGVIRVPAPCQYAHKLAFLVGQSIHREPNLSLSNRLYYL


Tests used:
[1] = target: MIWI (PIWIL1), mouse, 3×Flag–SNAP-tagged recombinant, loaded with a synthetic piRNA (MIWI piRISC) (mouse) (UniProt Q9JMB7)
[2] = target: T1, MIWI (PIWIL1), mouse, …; test: enzyme kinetics titration (pre-steady-state target-cleavage rate k_burst against GTSF1 concentration); k_burst of MIWI piRISC measured at 1–5,000 nM GTSF1 and fit to kburst=kpot[GTSF1]/(Kd+[GTSF1]); Kd is for the MIWI piRISC–target RNA ternary complex; details: both partners purified

amount of target RNA cleaved by MIWI piRISC with 100 nM recombinant GTSF protein (fold increase) [1] [fold]	Kd [2] [nM]	Molecule
2.6	–	BmGtsf1-like, Bombyx mori, V5SBP-tagged purified recombinant (natural protein)
–	8	Gametocyte specific factor 1 (GTSF1), mouse, wild type, purified recombinant (natural protein, UniProt Q9DAN6 1-167, looked up, Mouse GTSF1, tandem CHHC-type zinc-finger protein, printed mass 19,083 Da; cDNA synthesized at Twist Biosciences; Grown with 1 uM ZnSO4 (zinc-finger protein); also called wild-type GTSF1; MmGtsf1; source: E. coli Rosetta-Gami 2 (pCold-GST), purified (glutathione Sepharose, HRV3C cleavage, HiTrap Q)) MEDTYIDSLDPEKLLQCPYDKNHQIRACRFPYHLIKCRKNHPDVANKLATCPFNARHQVPRAEISHHISSCDDKSCIEQDVVNQTRNLGQETLAESTWQCPPCDEDWDKDLWEQTSTPFVWGTASFCGNNSPANNIVMEHKSNLASGMRVPKSLPYVLPWKNNGNAQ
–	500	GTSF1(W98A/W107A/W112A), mouse, PIWI-interacting mutant, purified recombinant (natural protein, UniProt Q9DAN6 1-167, looked up, Mouse GTSF1 with W98A, W107A and W112A; expression vector synthesized at Twist Biosciences; also called PIWI-int mutant GTSF1; source: E. coli Rosetta-Gami 2 (pCold-GST), purified (glutathione Sepharose, HRV3C cleavage, HiTrap Q)) MEDTYIDSLDPEKLLQCPYDKNHQIRACRFPYHLIKCRKNHPDVANKLATCPFNARHQVPRAEISHHISSCDDKSCIEQDVVNQTRNLGQETLAESTAQCPPCDEDADKDLAEQTSTPFVWGTASFCGNNSPANNIVMEHKSNLASGMRVPKSLPYVLPWKNNGNAQ
